Assay results: patent US20230134571A1 (INTERNATIONAL AIDS VACCINE INITIATIVE, published 2023)

Experiments:
Experiment in all cases: cell-based or functional assay
[1] = target: HIV Env of isolate 62357_14_D3_4589 (clade B) (HIV)
[2] = target: HIV Env of isolate 6244_13_B5_4576 (clade B) (HIV)
[3] = target: HIV Env of isolate X1254_C3 (clade G) (HIV)
[4] = target: HIV Env of isolate 0330.v4.c3 (clade A) (HIV)
[5] = target: HIV Env of isolate 3016.v5.c45 (clade D) (HIV)
[6] = target: HIV Env of isolate T263-8 (clade AG) (HIV)
[7] = target: HIV Env of isolate 6952.v1.c20 (clade CD) (HIV)
[8] = target: HIV Env of isolate CNE8 (clade AE) (HIV)
[9] = target: HIV Env of isolate CNE21 (clade BC) (HIV)
[10] = target: HIV Env of isolate WEAU_d15_410_5017 (clade B) (HIV)
[11] = target: HIV Env of isolate 6540.v4.c1 (clade AC) (HIV)
[12] = target: HIV Env of isolate Q769.d22 (clade A) (HIV)
[13] = target: HIV Env of isolate 7030102001E5(Rev-) (clade C) (HIV)
[14] = target: HIV Env of isolate Ce1172_H1 (clade C) (HIV)
[15] = target: HIV Env of isolate 1012_11_TC21_3257 (clade B) (HIV)
[16] = target: HIV Env, isolate 6811.v7.c18 (HIV)
[17] = target: HIV Env, isolate X1254_C3 (HIV)
[18] = target: HIV Env, isolate HIV-16055-2.3 (HIV)
[19] = target: HIV Env, isolate SC05_8C11_2344 (HIV)
HIV Env, isolate CNE17 = HIV Env, isolate CNE17 (HIV)
HIV Env, isolate 6535.3 = HIV Env, isolate 6535.3 (HIV)
[20] = target: HIV Env, isolate Du172.17 (HIV)
[21] = target: HIV Env, isolate CAAN5342.A2 (HIV)
[22] = target: HIV Env, isolate Ce1176_A3 (HIV)
[23] = target: HIV Env, isolate ZM53M.PB12 (HIV)
[24] = target: HIV Env, isolate Ce703010054_2A2 (HIV)
[25] = target: HIV Env, isolate Ce704809221_1B3 (HIV)
[26] = target: HIV Env, isolate Ce1172_H1 (HIV)
[27] = target: HIV Env, isolate P1981_C5_3 (HIV)
HIV Env, isolate TRO.11 = HIV Env, isolate TRO.11 (HIV)
HIV Env, isolate 249MB10 = HIV Env, isolate 249MB10 (HIV)
HIV Env, isolate CNE19 = HIV Env, isolate CNE19 (HIV)
[28] = target: HIV Env, isolate X1193_C1 (HIV)
[29] = target: HIV Env, isolate 3817.v2.c59 (HIV)
[30] = target: HIV Env, isolate WITO4160.33 (HIV)
[31] = target: HIV Env, isolate 6240_08_TA5_4622 (HIV)
[32] = target: HIV Env, isolate HIV-001428-2.42 (HIV)
HIV Env, isolate CNE58 = HIV Env, isolate CNE58 (HIV)
[33] = target: HIV Env, isolate X1632_S2_B10 (HIV)
[34] = target: HIV Env, isolate 1006_11_C3_1601 (HIV)
[35] = target: HIV Env, isolate 6952.v1.c20 (HIV)
[36] = target: HIV Env, isolate 1054_07_TC4_1499 (HIV)
[37] = target: HIV Env, isolate 6480.v4.c25 (HIV)

B1: ePGDM13 (antibody, V domains shown)
VH: QAQLVQSGPEVRKPGTSVKVSCKNPGNTLTTYDLHWVRQVPGQGLQWMGWISHEGDKKVIVERFKAKVTIDWDRSTNTAYLQLSGLTSEDTAVYYCAKGSKHRLRDYALYDEDGALNWAVDVDYLANLEFWGQGTAVTVSS
VL: DIVLTQSPLSLSVTPGESASISCKSSHSLQHGDRNNYLAWYVQKPGRSPQLLLDLASERASGVPDRFSGSGSEKDFTLKISRVETEDVGTYYCMQGRESPWTFGQGTKVDIK
- IC50 (µg/ml) with constrains [1]: 17.4 µg/mL
- IC50 (µg/ml) with constrains [2]: 30.8 µg/mL
- IC50 (µg/ml) with constrains [3]: 0.518 µg/mL
- IC50 (µg/ml) with constrains [4]: 0.002 µg/mL
- IC80 (µg/ml) with constrains [4]: 0.008 µg/mL
- IC50 (µg/ml) with constrains [5]: > 100 µg/mL
- IC50 (µg/ml) with constrains [6]: 0.025 µg/mL
- IC50 (µg/ml) with constrains [7]: 0.079 µg/mL
- IC50 (µg/ml) with constrains [8]: 0.005 µg/mL
- IC80 (µg/ml) with constrains [8]: 0.022 µg/mL
- IC50 (µg/ml) with constrains [9]: 0.001 µg/mL
- IC50 (µg/ml) with constrains [10]: 0.003 µg/mL
- IC50 (µg/ml) with constrains [11]: 0.015 µg/mL
- IC80 (µg/ml) with constrains [11]: 0.06 µg/mL
- IC50 (µg/ml) with constrains [12]: 0.002 µg/mL
- IC80 (µg/ml) with constrains [12]: 0.01 µg/mL
- IC50 (µg/ml) with constrains [13]: > 100 µg/mL
- IC50 (µg/ml) with constrains [14]: 0.061 µg/mL
- IC50 (µg/ml) with constrains [15]: 0.065 µg/mL

B2: ePGDM9 (antibody, V domains shown)
VH: QAQLVQSGPEVRKPGTSVKVSCKNPGNTLTTYDLHWVRQVPGQGLQWMGWISHEGDKKVIVERFKAKVTIDWDRSTNTAYLQLSGLTSEDTAVYYCAKGSKHRLRDYALYDEDGALNWAVDVDYLANLEFWGQGTAVTVSS
VL: DIVLTQSPLSLSVTPGESASISCKSSQSLIHGDRNNYLAWYVQKPGRSPQLLIDLASERASGVPDRFSGSGSRKDFTLKISRVETEDVGTYYCMQGRESPWTFGQGTKVDIK
- IC50 (µg/ml) with constrains [1]: 9.51 µg/mL
- IC50 (µg/ml) with constrains [2]: 12.6 µg/mL
- IC50 (µg/ml) with constrains [3]: 0.178 µg/mL
- IC50 (µg/ml) with constrains [4]: 0.003 µg/mL
- IC80 (µg/ml) with constrains [4]: 0.01 µg/mL
- IC50 (µg/ml) with constrains [5]: > 100 µg/mL
- IC50 (µg/ml) with constrains [6]: 0.015 µg/mL
- IC50 (µg/ml) with constrains [7]: 0.052 µg/mL
- IC50 (µg/ml) with constrains [8]: 0.001 µg/mL
- IC80 (µg/ml) with constrains [8]: 0.002 µg/mL
- IC50 (µg/ml) with constrains [9]: 0.002 µg/mL
- IC50 (µg/ml) with constrains [10]: 0.002 µg/mL
- IC50 (µg/ml) with constrains [11]: 0.008 µg/mL
- IC80 (µg/ml) with constrains [11]: 0.031 µg/mL
- IC50 (µg/ml) with constrains [12]: 0.002 µg/mL
- IC80 (µg/ml) with constrains [12]: 0.009 µg/mL
- IC50 (µg/ml) with constrains [13]: > 100 µg/mL
- IC50 (µg/ml) with constrains [14]: 0.027 µg/mL
- IC50 (µg/ml) with constrains [15]: 0.042 µg/mL

B3: ePGDM9 (antibody, V domains shown)
VH: QAQLVQSGPEVRKPGTSVKVSCKNPGNTLTTYDLHWVRQVPGQGLQWMGWISHEGDKKVIVERFKAKVTIDWDRSTNTAYLQLSGLTSEDTAVYYCAKGSKHRLRDYALYDEDGALNWAVDVDYLANLEFWGQGTAVTVSS
VL: DIVLTQSPLSLSVTPGESASISCKSSQSLIHGDRNNYLAWYVQKPGRSPQLLIDLASERASGVPDRFSGSGSRKDFTLKISRVETEDVGTYYCMQGRESPWTFGQGTKVDIK
- IC80 (µg/ml) with constrains [16]: > 100 µg/mL
- IC80 (µg/ml) with constrains [17]: 0.71 µg/mL
- IC80 (µg/ml) with constrains [18]: 0.006 µg/mL
- IC80 (µg/ml) with constrains [19]: 4.25 µg/mL
- IC80 (µg/ml) with constrains (HIV Env, isolate CNE17): 0.01 µg/mL
- IC80 (µg/ml) with constrains (HIV Env, isolate 6535.3): > 100 µg/mL
- IC80 (µg/ml) with constrains [20]: 3.46 µg/mL
- IC80 (µg/ml) with constrains [21]: 70.1 µg/mL
- IC80 (µg/ml) with constrains [22]: 0.089 µg/mL
- IC80 (µg/ml) with constrains [23]: 0.026 µg/mL
- IC80 (µg/ml) with constrains [24]: 0.032 µg/mL
- IC80 (µg/ml) with constrains [25]: 0.539 µg/mL
- IC80 (µg/ml) with constrains [26]: 0.108 µg/mL
- IC80 (µg/ml) with constrains [27]: 0.585 µg/mL
- IC80 (µg/ml) with constrains (HIV Env, isolate TRO.11): 0.652 µg/mL
- IC80 (µg/ml) with constrains (HIV Env, isolate 249MB10): 0.028 µg/mL
- IC80 (µg/ml) with constrains (HIV Env, isolate CNE19): 0.012 µg/mL
- IC80 (µg/ml) with constrains [28]: 0.158 µg/mL
- IC80 (µg/ml) with constrains [29]: 0.64 µg/mL
- IC80 (µg/ml) with constrains [30]: 0.009 µg/mL
- IC80 (µg/ml) with constrains [31]: 6.6 µg/mL
- IC80 (µg/ml) with constrains [32]: 0.008 µg/mL
- IC80 (µg/ml) with constrains (HIV Env, isolate CNE58): 0.008 µg/mL
- IC80 (µg/ml) with constrains [33]: 0.01 µg/mL
- IC80 (µg/ml) with constrains [34]: 2.35 µg/mL
- IC80 (µg/ml) with constrains [35]: 0.21 µg/mL
- IC80 (µg/ml) with constrains [36]: > 100 µg/mL
- IC80 (µg/ml) with constrains [37]: > 100 µg/mL

B4: ePGDM5 (antibody, V domains shown)
VH: QAQLVQSGPEVRKPGTSVKVSCKNPGNTLTTYDLHWVRQVPGQGLQWMGWISHEGDKKVIVERFKAKVTIDWDRSTNTAYLQLSGLTSEDTAVYYCAKGSKHRLRDYALYDEDGALNWAVDVDYLANLEFWGQGTAVTVSS
VL: DFVLTQSPLSLSVTPGESASISCKSDHSLQHGDRNNYLAWYVQKPGRSPQLLIDLASERASGVPDRFSGSGSRKDFTLKIDRVEAEDVGTYYCMQGRESPWTFGQGTKVDIK
- IC50 (µg/ml) with constrains [1]: 9.98 µg/mL
- IC50 (µg/ml) with constrains [2]: 18.9 µg/mL
- IC50 (µg/ml) with constrains [3]: 0.217 µg/mL
- IC50 (µg/ml) with constrains [4]: 0.003 µg/mL
- IC80 (µg/ml) with constrains [4]: 0.01 µg/mL
- IC50 (µg/ml) with constrains [5]: > 100 µg/mL
- IC50 (µg/ml) with constrains [6]: 0.019 µg/mL
- IC50 (µg/ml) with constrains [7]: 0.033 µg/mL
- IC50 (µg/ml) with constrains [8]: 0.001 µg/mL
- IC80 (µg/ml) with constrains [8]: 0.003 µg/mL
- IC50 (µg/ml) with constrains [9]: 0.002 µg/mL
- IC50 (µg/ml) with constrains [10]: 0.001 µg/mL
- IC50 (µg/ml) with constrains [11]: 0.012 µg/mL
- IC80 (µg/ml) with constrains [11]: 0.05 µg/mL
- IC50 (µg/ml) with constrains [12]: 0.003 µg/mL
- IC80 (µg/ml) with constrains [12]: 0.011 µg/mL
- IC50 (µg/ml) with constrains [13]: > 100 µg/mL
- IC50 (µg/ml) with constrains [14]: 0.016 µg/mL
- IC50 (µg/ml) with constrains [15]: 0.076 µg/mL

B5: PGDM1400 (antibody, V domains shown)
VH: QVHLTQSGPEVRKPGTSVKVSCKAPGNTLKTYDLHWVRSVPGQGLQWMGWISHEGDKKVIVERFKAKVTIDWDRSTNTAYLQLSGLTSGDTAVYYCAKGSKHRLRDYALYDDDGALNWAVDVDYLSNLEFWGQGTAVTVSS
VL: DFVLTQSPHSLSVTPGESASISCKSSHSLIHGDRNNYLAWYVQKPGRSPQLLIYLASSRASGVPDRFSGSGSDKDFTLKISRVETEDVGTYYCMQGRESPWTFGQGTKVDIK
- IC50 (µg/ml) with constrains [1]: > 100 µg/mL
- IC50 (µg/ml) with constrains [2]: > 100 µg/mL
- IC50 (µg/ml) with constrains [3]: 45.4 µg/mL
- IC50 (µg/ml) with constrains [4]: 0.004 µg/mL
- IC80 (µg/ml) with constrains [4]: 0.016 µg/mL
- IC50 (µg/ml) with constrains [5]: > 100 µg/mL
- IC50 (µg/ml) with constrains [6]: 0.02 µg/mL
- IC50 (µg/ml) with constrains [7]: 1.76 µg/mL
- IC50 (µg/ml) with constrains [8]: 0.001 µg/mL
- IC80 (µg/ml) with constrains [8]: 0.003 µg/mL
- IC50 (µg/ml) with constrains [9]: 0.003 µg/mL
- IC50 (µg/ml) with constrains [10]: 0.075 µg/mL
- IC50 (µg/ml) with constrains [11]: 0.007 µg/mL
- IC80 (µg/ml) with constrains [11]: 0.026 µg/mL
- IC50 (µg/ml) with constrains [12]: 0.007 µg/mL
- IC80 (µg/ml) with constrains [12]: 0.028 µg/mL
- IC50 (µg/ml) with constrains [13]: > 100 µg/mL
- IC50 (µg/ml) with constrains [14]: 0.218 µg/mL
- IC50 (µg/ml) with constrains [15]: 0.076 µg/mL
